US20160152721A1 (Novartis, published 2016)
Several values for one entry are separate records, joined by “and”; a condition that tells them apart may be missing. Equal values may be shown once. Values belong to the binder of their own block, whether it stands above or below them.

Columns and labels:
[1] = target: T1, human CD40 on cells (BJAB B cell line, human PBMCs, CD20+ B cells, tonsil B cells, monocyte-derived dendritic … (human, UniProt P25942 21-277)); assay: cell-based or functional assay
T1 sequence (P25942 21-277 limits assumed): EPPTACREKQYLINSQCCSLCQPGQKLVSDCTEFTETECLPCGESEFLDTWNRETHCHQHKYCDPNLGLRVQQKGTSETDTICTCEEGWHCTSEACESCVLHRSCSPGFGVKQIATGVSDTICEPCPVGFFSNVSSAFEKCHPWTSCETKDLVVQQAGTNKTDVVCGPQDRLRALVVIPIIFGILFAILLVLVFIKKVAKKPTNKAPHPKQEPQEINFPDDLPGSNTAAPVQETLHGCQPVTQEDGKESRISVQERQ

[2] = target: T1, human CD40 on cells (BJAB B cell line, …); assay: cell-based or functional assay; remark: listed apart in the source
[3] = target: T1, human CD40 on cells (BJAB B cell line, …); assay: cell-based or functional assay; remark: listed apart in the source
[4] = target: human CD40 (Biacore antigen) (human, UniProt P25942 21-193, limits assumed); assay: Biacore (SPR); format not described
human CD40 (Biacore antigen), sequence (P25942 21-193 limits assumed): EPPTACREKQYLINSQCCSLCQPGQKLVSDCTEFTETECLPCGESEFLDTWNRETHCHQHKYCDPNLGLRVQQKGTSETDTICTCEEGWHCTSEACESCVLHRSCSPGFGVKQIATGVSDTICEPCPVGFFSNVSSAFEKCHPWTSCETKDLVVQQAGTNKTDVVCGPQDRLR

[5] = target: T1, human CD40 on cells (BJAB B cell line, …); assay: flow cytometry on BJAB cells, normalized median fluorescence [left panel (Experiment 68_09]
Protocol: (§1) Flow cytometry was used, in order to compare the binding of the different anti-CD40 antibody Fc variants in their binding to human BJAB cells. Therefore, 2×10⁵ cells were seeded per well in a 96-well V-bottom plate. The plates were washed twice with 200 μL of FACS buffer (PBS, 5% FCS, 2 mM EDTA) for 2 min at 4° C. at 1350×g. Supernatants were discarded and cells were resuspended in […] FACS buffer containing 8% human serum (InVitromex, Cat. No. S4190) and incubated for 10 min. After two washes anti-human CD40 Fc variants were added in 50 μL FACS buffer with 1% human serum starting at a concentration of 10 μg/mL in a 1:2 dilution. Cells were incubated for 30 min on ice followed by two washing steps. 50 μL of polyclonal rabbit anti-human IgG FITC, F(ab′)2 (DAKO, Cat. No. F 0315) were added to each well and incubated for 30 min on ice. At the end of the incubation cells were washed twice, resuspended in 100 μL FACS buffer and acquired on a FACS Cantoll.
(§2) After acquisition the mean fluorescence intensity of the FITC channel was acquired in FloJo.Graphing and curve fitting was performed with GraphPad Prism 5.0. Due to changing intensities between individual experiments, values were normalized. Therefore, the highest value of each antibody test series was equaled 100%. Non-linear curve fittings were performed with the percent values.
(§3) To compare the curves of the different experiments, the highest median fluorescence intensity of each individual dose-titration was set to 100% binding and a non-linear curve fitting was applied. […] No changes in the binding capabilities of the variants could be observed with the different mutations of the Fc binding region of Chir12.12.

[6] = target: T1, human CD40 on cells (BJAB B cell line, …); assay: flow cytometry on BJAB cells, normalized median fluorescence [right panel (Experiment 72_09]
Protocol: as §1, §2, §3

[7] = target: T1, human CD40 on cells (BJAB B cell line, …); assay: cell-based or functional assay; remark: listed apart in the source
[8] = target: T2, Rhesus CD40 on CD20+ B cells / PBMCs (Rhesus, UniProt F6SNI1 21-278); assay: cell-based or functional assay
T2 sequence (F6SNI1 entry or part of it limits assumed): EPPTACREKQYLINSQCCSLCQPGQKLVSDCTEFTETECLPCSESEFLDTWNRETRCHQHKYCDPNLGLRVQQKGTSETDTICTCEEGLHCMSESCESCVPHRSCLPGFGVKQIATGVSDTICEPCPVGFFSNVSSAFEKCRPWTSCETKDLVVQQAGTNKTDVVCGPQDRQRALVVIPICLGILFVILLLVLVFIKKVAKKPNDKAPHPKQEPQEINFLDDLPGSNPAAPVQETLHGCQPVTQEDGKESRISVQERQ

[9] = target: T3, Cynomolgus CD40 on CD20+ B cells / PBMCs (Cynomolgus, UniProt G7PG38 21-278); assay: cell-based or functional assay
T3 sequence (G7PG38 entry or part of it limits assumed): as the sequence (F6SNI1 entry or part of it limits assumed) above, with R70Q, M92T, A207V, L220P counted along it

[10] = target: T1, human CD40 on cells (BJAB B cell line, …); assay: cell-based or functional assay; remark: listed apart in the source
[11] = target: T2, Rhesus CD40 on CD20+ B cells / PBMCs; assay: cell-based or functional assay; remark: listed apart in the source
[12] = target: T1, human CD40 on cells (BJAB B cell line, …); assay: flow cytometry on human CD20+ B cells
Protocol: (§4) PBMCs (rhesus, cynomolgus or human) or tonsil B cells (human only) were incubated at 4° C. for 30 min with purified labeled mAb1 or isotype control antibodies in dose response (final concentration range 2.5 μg/ml-0.00125 μg/ml). Cells were subsequently washed prior to being incubated with an anti-human (non-human primate cross-reactive) and a biotinylated anti-human IgG antibody with minimal cross-reactivity to NHPs (R10; note that it was possible to distinguish membrane IgG expressing human B cells either by including an anti-IgM stain or via differential intensity of FACS staining). Cells were again incubated at 4° C. for 30 min prior to being washed and subject to final staining with streptavidin-FITC for 20 min at 4° C. Cells were subsequently washed and evaluation of CD40 expression on CD20+ cells was performed by flow cytometry.

[13] = target: T3, Cynomolgus CD40 on CD20+ B cells / PBMCs; assay: flow cytometry on Cynomolgus CD20+ B cells
Protocol: as §4

[14] = target: T2, Rhesus CD40 on CD20+ B cells / PBMCs; assay: flow cytometry on Rhesus CD20+ B cells (n = 6)
Protocol: as §4

B1: Chir12.12 (antibody, human IgG1, kappa)
heavy: not shown
light: DIVMTQSPLSLTVTPGEPASISCRSSQSLLYSNGYNYLDWYLQKPGQSPQVLISLGSNRASGVPDRFSGSGSGTDFTLKISRVEAEDVGVYYCMQARQTPFTFGPGTKVDIRRTVAAPSVFIFPPSDEQLKSGTASVVCLLNNFYPREAKVQWKVDNALQSGNSQESVTEQDSKDSTYSLSSTLTLSKADYEKHKVYACEVTHQGLSSPVTKSFNRGEC
notes: also called Chir12.12 (wt Fc); parental anti-CD40 antibody
IC50 for inhibition of CD40L-mediated proliferation of PBMCs [1]: 0.176 µg/mL | IC50 for the inhibition of TNF alpha release from human MoDCs stimulated with MegaCD40L, average [2]: 0.036 µg/mL | IC50 for the inhibition of TNF alpha release from human MoDCs stimulated with MegaCD40L, experiment #2 [2]: 0.041 µg/mL | IC50 for the inhibition of TNF alpha release from human MoDCs stimulated with MegaCD40L, experiment #3 [2]: 0.03 µg/mL | Agonist activity on huPBMCs (EC50, ng/ml) [3]: > 10000 ng/mL | CD40L inhibition - huPBMCs (IC50, ng/ml) [3]: 13 ng/mL | Kd [4]: 0.55 nM | EC50 (read off the curve) [5]: ~0.1 µg/mL | EC50 (read off the curve) [6]: ~0.3 µg/mL

B2: mAb1 (antibody, human IgG1, kappa, N297A)
heavy: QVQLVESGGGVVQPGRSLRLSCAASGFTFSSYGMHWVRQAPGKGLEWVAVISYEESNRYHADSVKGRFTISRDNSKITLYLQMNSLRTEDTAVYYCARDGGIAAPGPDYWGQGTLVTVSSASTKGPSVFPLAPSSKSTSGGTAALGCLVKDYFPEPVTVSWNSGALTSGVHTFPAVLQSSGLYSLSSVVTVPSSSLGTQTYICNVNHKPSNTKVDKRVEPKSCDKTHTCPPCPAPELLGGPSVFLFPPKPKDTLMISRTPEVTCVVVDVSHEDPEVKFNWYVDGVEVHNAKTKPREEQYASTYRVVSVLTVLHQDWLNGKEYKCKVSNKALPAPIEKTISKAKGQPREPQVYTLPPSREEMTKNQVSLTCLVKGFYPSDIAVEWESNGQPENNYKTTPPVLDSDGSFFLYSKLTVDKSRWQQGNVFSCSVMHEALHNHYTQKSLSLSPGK
light: B1 light
notes: Fc-silent IgG1 variant of Chir12.12 with N297A (aglycosylated); same VH/VL as Chir12.12; also called mAb1 (N297A)
IC50 for inhibition of CD40L-mediated proliferation of PBMCs [1]: 0.058 µg/mL | IC50 for the inhibition of TNF alpha release from human MoDCs stimulated with MegaCD40L, average [2]: 0.04 µg/mL | IC50 for the inhibition of TNF alpha release from human MoDCs stimulated with MegaCD40L, experiment #1 [2]: 0.023 µg/mL | IC50 for the inhibition of TNF alpha release from human MoDCs stimulated with MegaCD40L, experiment #2 [2]: 0.044 µg/mL | IC50 for the inhibition of TNF alpha release from human MoDCs stimulated with MegaCD40L, experiment #3 [2]: 0.058 µg/mL | Agonist activity on huPBMCs (EC50, ng/ml) [3]: > 10000 ng/mL | CD40L inhibition - huPBMCs (IC50, ng/ml) [3]: 15 ng/mL | CD154 inhibition (IC50, µg/ml), CD154+IL-4 induced proliferation of human tonsil B cells [7]: 0.058 µg/mL and 0.075 µg/mL | CD154 inhibition (IC50, µg/ml), CD154+IL-4 induced proliferation of Rhesus PBMCs (n = 6) [8]: 0.03 µg/mL | CD154 inhibition (IC50, µg/ml), CD154+IL-4 induced proliferation of Cynomolgus PBMCs [9]: 0.015 µg/mL and 0.02 µg/mL | IC50 in the functional inhibition test (soluble CD154 + IL4-induced proliferation, human tonsil B cells) [10]: 0.067 µg/mL | IC50 in the functional inhibition test (soluble CD154 + IL4-induced proliferation, rhesus PBMCs) [11]: 0.0255 µg/mL | Kd [4]: 0.69 nM | EC50 [12]: 0.26 µg/mL and 0.28 µg/mL | EC50 [13]: 0.3 µg/mL and 0.24 µg/mL | EC50 [14]: 0.22 µg/mL | EC50 (read off the curve) [5]: ~0.3 µg/mL | EC50 (read off the curve) [6]: ~0.5 µg/mL

Stronger by Kd [4], values ahead:

IC50 for inhibition of CD40L-mediated proliferation of PBMCs [1]: 0.118 µg/mL | IC50 for the inhibition of TNF alpha release from human MoDCs stimulated with MegaCD40L, average [2]: 0.032 µg/mL | IC50 for the inhibition of TNF alpha release from human MoDCs stimulated with MegaCD40L, experiment #1 [2]: 0.039 µg/mL | IC50 for the inhibition of TNF alpha release from human MoDCs stimulated with MegaCD40L, experiment #2 [2]: 0.008 µg/mL | IC50 for the inhibition of TNF alpha release from human MoDCs stimulated with MegaCD40L, experiment #3 [2]: 0.047 µg/mL | Agonist activity on huPBMCs (EC50, ng/ml) [3]: > 10000 ng/mL | CD40L inhibition - huPBMCs (IC50, ng/ml) [3]: 15 ng/mL | Kd [4]: 0.33 nM | EC50 (read off the curve) [5]: ~0.1 µg/mL | EC50 (read off the curve) [6]: ~0.2 µg/mL
B3: mAb3 (antibody, human IgG1, kappa, L234A L235A)
heavy: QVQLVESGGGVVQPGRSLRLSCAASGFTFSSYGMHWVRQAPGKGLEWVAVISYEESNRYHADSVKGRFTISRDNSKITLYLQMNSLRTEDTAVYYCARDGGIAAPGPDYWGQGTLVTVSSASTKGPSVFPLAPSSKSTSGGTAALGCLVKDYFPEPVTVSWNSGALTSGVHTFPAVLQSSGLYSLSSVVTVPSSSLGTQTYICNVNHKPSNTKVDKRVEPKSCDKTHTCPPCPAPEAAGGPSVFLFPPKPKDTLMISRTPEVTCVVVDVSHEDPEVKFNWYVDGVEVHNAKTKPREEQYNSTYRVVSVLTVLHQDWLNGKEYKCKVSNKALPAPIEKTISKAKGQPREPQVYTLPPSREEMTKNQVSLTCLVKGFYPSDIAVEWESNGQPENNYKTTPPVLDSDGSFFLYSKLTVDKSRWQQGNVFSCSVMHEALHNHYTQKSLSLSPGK
light: B1 light
notes: IgG1 variant of Chir12.12 with L234A/L235A; same VH/VL as Chir12.12; also called mAb3 (LALA); LALA mutant

IC50 for inhibition of CD40L-mediated proliferation of PBMCs [1]: 0.146 µg/mL | IC50 for the inhibition of TNF alpha release from human MoDCs stimulated with MegaCD40L, average [2]: 0.033 µg/mL | IC50 for the inhibition of TNF alpha release from human MoDCs stimulated with MegaCD40L, experiment #1 [2]: 0.041 µg/mL | IC50 for the inhibition of TNF alpha release from human MoDCs stimulated with MegaCD40L, experiment #2 [2]: 0.012 µg/mL | IC50 for the inhibition of TNF alpha release from human MoDCs stimulated with MegaCD40L, experiment #3 [2]: 0.042 µg/mL | Agonist activity on huPBMCs (EC50, ng/ml) [3]: > 10000 ng/mL | CD40L inhibition - huPBMCs (IC50, ng/ml) [3]: 17 ng/mL | Kd [4]: 0.49 nM
B4: mAb2 (antibody, human IgG1, kappa)
heavy: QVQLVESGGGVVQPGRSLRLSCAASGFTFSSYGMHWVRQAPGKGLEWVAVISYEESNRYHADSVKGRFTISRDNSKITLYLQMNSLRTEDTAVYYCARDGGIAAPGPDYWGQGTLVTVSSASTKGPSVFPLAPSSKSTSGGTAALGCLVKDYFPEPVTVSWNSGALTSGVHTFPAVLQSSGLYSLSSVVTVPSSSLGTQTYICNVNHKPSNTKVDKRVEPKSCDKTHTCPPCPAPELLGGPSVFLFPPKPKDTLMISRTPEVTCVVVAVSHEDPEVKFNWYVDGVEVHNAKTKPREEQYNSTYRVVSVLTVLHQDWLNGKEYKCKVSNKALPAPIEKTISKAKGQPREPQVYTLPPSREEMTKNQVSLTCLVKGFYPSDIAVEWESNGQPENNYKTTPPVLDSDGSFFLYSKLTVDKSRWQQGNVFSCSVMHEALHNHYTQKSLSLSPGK
light: B1 light
notes: Fc-silent IgG1 variant of Chir12.12 with D265A; same VH/VL as Chir12.12; also called mAb2 (D265A)
